Assay results taken from paper PMC10723116.

Target: H3K9me3 chromatin arrays (12 x 200 bp x 601 oligonucleosomes with H3K9-trimethylated histone H3) (Xenopus | not stated) (UniProt P84233)

HP1α-K42 (K42Q mutant of human HP1α) (from UniProt P45973 1-191) (natural protein)
degree of association of H3K9me3 chromatin arrays (40 nM) with 5 μM protein, chromatin association assay: 20%
